Target: 3BP2 Tankyrase targeting peptide
Experiment: fluorescence polarisation

Kd: 500 ± 100 nM
B1: recombinant N-terminal region of TNKS2 containing all five ARCs (domain or fragment)
chain: AVEPAARELFEACRNGDVERVKRLVTPEKVNSRDTAGRKSTPLHFAAGFGRKDVVEYLLQNGANVQARDDGGLIPLHNACSFGHAEVVNLLLRHGADPNARDNWNYTPLHEAAIKGKIDVCIVLLQHGAEPTIRNTDGRTALDLADPSAKAVLTGEYKKDELLESARSGNEEKMMALLTPLNVNCHASDGRKSTPLHLAAGYNRVKIVQLLLQHGADVHAKDKGDLVPLHNACSYGHYEVTELLVKHGACVNAMDLWQFTPLHEAASKNRVEVCSLLLSYGADPTLLNCHNKSAIDLAPTPQLKERLAYEFKGHSLLQAAREADVTRIKKHLSLEMVNFKHPQTHETALHCAAASPYPKRKQICELLLRKGANINEKTKEFLTPLHVASEKAHNDVVEVVVKHEAKVNALDNLGQTSLHRAAYCGHLQTCRLLLSYGCDPNIISLQGFTALQMGNENVQQLLQEGISLGNSEADRQLLEAAKAGDVETVKKLCTVQSVNCRDIEGRQSTPLHFAAGYNRVSVVEYLLQHGADVHAKDKGGLVPLHNACSYGHYEVAELLVKHGAVVNVADLWKFTPLHEAAAKGKYEICKLLLQHGADPTKKNRDGNTPLDLVKDGDTDIQDLLRGDAALLDAAKKGCLARVKKLSSPDNVNCRDTQGRHSTPLHLAAGYNNLEVAEYLLQHGADVNAQDKGGLIPLHNAASYGHVDVAALLIKYNACVNATDKWAFTPLHEAAQKGRTQLCALLLAHGADPTLKNQEGQTPLDLVSADDVSALLTAAMPP

Source: article PMC3475183 (Cell, 2011)
